Measured values reported in article PMC8230641.

Legend:
Test in all cases: native gel or EMSA
[1] = target: BG505-NFL Env trimer (native flexible linker variant, C-terminal hexahistidine tag) (HIV-1 (BG505))
[2] = target: BG505-NtCC Env trimer (NFL variant with the N-terminal cysteine-containing coupling tag CAAC and (G4S)3 linker) (HIV-1 (BG505))
[3] = target: BG505-SOSIP Env trimer (BG505 SOSIP.664 sequence, mini-tPA signal sequence, C-terminal hexahistidine tag) (HIV-1 (BG505))
[4] = target: ConC-NFL Env trimer (stabilized HIV-1 clade C consensus, native flexible linker variant, with G473T) (HIV-1 clade C consensus)
[5] = target: ConC-NtCC Env trimer (stabilized HIV-1 clade C consensus NFL variant with the N-terminal coupling tag CAAC and (G4S)3 linker, with G473T) (HIV-1 clade C consensus)
[6] = target: ConC-SOSIP Env trimer (stabilized HIV-1 clade C consensus, ConCv5 KIKO, with G473T) (HIV-1 clade C consensus)

In the case of “BG505-NFL Env trimer (native flexible linker variant, C-terminal hexahistidine tag) (domain or fragment)”, the stoichiometry N [1] is reported as 3.
For “BG505-NtCC Env trimer (NFL variant with the N-terminal cysteine-containing coupling tag CAAC and (G4S)3 linker) (domain or fragment)”, the stoichiometry N [2] was 3.
“BG505-SOSIP Env trimer (BG505 SOSIP.664 sequence, mini-tPA signal sequence, C-terminal hexahistidine tag) (complex)” was tested, and the stoichiometry N [3] was 3.
With “ConC-NFL Env trimer (stabilized HIV-1 clade C consensus, native flexible linker variant, with G473T)” the stoichiometry N [4] was 3.
For “ConC-NtCC Env trimer (stabilized HIV-1 clade C consensus NFL variant with the N-terminal coupling tag CAAC and (G4S)3 linker, with G473T)”, the stoichiometry N [5] was 3.
With “ConC-SOSIP Env trimer (stabilized HIV-1 clade C consensus, ConCv5 KIKO, with G473T) (complex)” the stoichiometry N [6] was 3.
